Experimental data reported in patent US20210317225A1 (Genmab, published 2021).

What was measured:
[1] = target: Human CD137 (TNR9_Human) (human, UniProt Q07011 24-255); experiment: cell-based or functional assay
[2] = target: Human CD40 (human, UniProt P25942 21-277); experiment: cell-based or functional assay
Chain of Human CD40 (P25942 21-277): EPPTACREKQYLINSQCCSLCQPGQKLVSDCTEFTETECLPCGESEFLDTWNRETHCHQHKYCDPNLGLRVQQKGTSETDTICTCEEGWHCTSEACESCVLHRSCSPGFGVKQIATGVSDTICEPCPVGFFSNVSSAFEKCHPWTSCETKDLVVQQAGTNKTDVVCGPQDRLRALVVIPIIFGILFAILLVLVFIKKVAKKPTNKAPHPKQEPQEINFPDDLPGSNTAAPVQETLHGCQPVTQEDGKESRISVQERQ

Chain of Human CD137 (TNR9_Human) (Q07011 24-255): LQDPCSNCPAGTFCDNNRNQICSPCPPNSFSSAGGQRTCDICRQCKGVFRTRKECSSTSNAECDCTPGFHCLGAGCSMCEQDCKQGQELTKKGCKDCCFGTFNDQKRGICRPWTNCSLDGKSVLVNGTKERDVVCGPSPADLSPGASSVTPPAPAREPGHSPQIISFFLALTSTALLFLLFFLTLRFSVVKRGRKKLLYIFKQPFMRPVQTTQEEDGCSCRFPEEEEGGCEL

luciferase activity (RLU) of NF-KB/293/GFP-Luc cells transduced with CD137, incubated with K562_CD40 [1] [ng/mL]	luciferase activity (RLU) of NF-KB/293/GFP-Luc cells transduced with CD40, incubated with K562_CD137 [2] [ng/mL]	EC50 for induction of T-cell proliferation (antigen-specific CD8+ T-cell assay, proliferation index curves) [1] [ng/mL]	Binder
~100	~100	–	CD40-001-FEALxCD137-001-FEAR (bispecific antibody, human IgG1, kappa) heavy 1: EVQLQQSGPDLVKPGASVKISCKTSGYTFTEYIMHWVKQSHGKSLEWIGGIIPNNGGTSYNQKFKDKATMTVDKSSSTGYMELRSLTSEDSAVYYCTRREVYGRNYYALDYWGQGTLVTVSSASTKGPSVFPLAPSSKSTSGGTAALGCLVKDYFPEPVTVSWNSGALTSGVHTFPAVLQSSGLYSLSSVVTVPSSSLGTQTYICNVNHKPSNTKVDKRVEPKSCDKTHTCPPCPAPEFEGGPSVFLFPPKPKDTLMISRTPEVTCVVVAVSHEDPEVKFNWYVDGVEVHNAKTKPREEQYNSTYRVVSVLTVLHQDWLNGKEYKCKVSNKALPAPIEKTISKAKGQPREPQVYTLPPSREEMTKNQVSLTCLVKGFYPSDIAVEWESNGQPENNYKTTPPVLDSDGSFLLYSKLTVDKSRWQQGNVFSCSVMHEALHNHYTQKSLSLSPGK light 1: DIQMTQTTSSLSASLGDRVTITCSASQGINNYLNWYQQKPDGTVKLLIYYTSSLHSGVPSRFSGSGSGTDYSLTISNLEPEDIATYYCQQYSNLPYTFGGGTKLEIKRTVAAPSVFIFPPSDEQLKSGTASVVCLLNNFYPREAKVQWKVDNALQSGNSQESVTEQDSKDSTYSLSSTLTLSKADYEKHKVYACEVTHQGLSSPVTKSFNRGEC heavy 2: QSVEESGGRLVTPGTPLTLTCTVSGFSLSSYAVSWVRQAPGKGLEWIGVIWNNGATHYATWAKGRFTISKASTTVDLKVTSPTTEDTATYFCARSANDAWSTYSDLWGQGTLVTVSSASTKGPSVFPLAPSSKSTSGGTAALGCLVKDYFPEPVTVSWNSGALTSGVHTFPAVLQSSGLYSLSSVVTVPSSSLGTQTYICNVNHKPSNTKVDKRVEPKSCDKTHTCPPCPAPEFEGGPSVFLFPPKPKDTLMISRTPEVTCVVVAVSHEDPEVKFNWYVDGVEVHNAKTKPREEQYNSTYRVVSVLTVLHQDWLNGKEYKCKVSNKALPAPIEKTISKAKGQPREPQVYTLPPSREEMTKNQVSLTCLVKGFYPSDIAVEWESNGQPENNYKTTPPVLDSDGSFFLYSRLTVDKSRWQQGNVFSCSVMHEALHNHYTQKSLSLSPGK light 2: DIVMTQTPASVEAAVGGTVTIKCQASQTITNYLSWYQQKPGQPPKLLIYKASTLTSGVSSRFKGSGSGTEFTLTISDLESDDAATYYCQNYYYGSSSGYGFVFGGGTEVVVKRTVAAPSVFIFPPSDEQLKSGTASVVCLLNNFYPREAKVQWKVDNALQSGNSQESVTEQDSKDSTYSLSSTLTLSKADYEKHKVYACEVTHQGLSSPVTKSFNRGEC
~100	~100	5	CD40-001-FEALxCD137-005-FEAR (bispecific antibody, human IgG1, kappa) heavy 1: EVQLQQSGPDLVKPGASVKISCKTSGYTFTEYIMHWVKQSHGKSLEWIGGIIPNNGGTSYNQKFKDKATMTVDKSSSTGYMELRSLTSEDSAVYYCTRREVYGRNYYALDYWGQGTLVTVSSASTKGPSVFPLAPSSKSTSGGTAALGCLVKDYFPEPVTVSWNSGALTSGVHTFPAVLQSSGLYSLSSVVTVPSSSLGTQTYICNVNHKPSNTKVDKRVEPKSCDKTHTCPPCPAPEFEGGPSVFLFPPKPKDTLMISRTPEVTCVVVAVSHEDPEVKFNWYVDGVEVHNAKTKPREEQYNSTYRVVSVLTVLHQDWLNGKEYKCKVSNKALPAPIEKTISKAKGQPREPQVYTLPPSREEMTKNQVSLTCLVKGFYPSDIAVEWESNGQPENNYKTTPPVLDSDGSFLLYSKLTVDKSRWQQGNVFSCSVMHEALHNHYTQKSLSLSPGK light 1: DIQMTQTTSSLSASLGDRVTITCSASQGINNYLNWYQQKPDGTVKLLIYYTSSLHSGVPSRFSGSGSGTDYSLTISNLEPEDIATYYCQQYSNLPYTFGGGTKLEIKRTVAAPSVFIFPPSDEQLKSGTASVVCLLNNFYPREAKVQWKVDNALQSGNSQESVTEQDSKDSTYSLSSTLTLSKADYEKHKVYACEVTHQGLSSPVTKSFNRGEC heavy 2: QSVEESGGRLVTPGTPLTLTCTASGFTISDFHVTWVRQAPGKGLEWIGTIITSASTTAYATWARGRFTISKSSTTVNLKIVSPTTEDTATYFCARSTYTDTSGYYFDFWGQGTLVTVSSASTKGPSVFPLAPSSKSTSGGTAALGCLVKDYFPEPVTVSWNSGALTSGVHTFPAVLQSSGLYSLSSVVTVPSSSLGTQTYICNVNHKPSNTKVDKRVEPKSCDKTHTCPPCPAPEFEGGPSVFLFPPKPKDTLMISRTPEVTCVVVAVSHEDPEVKFNWYVDGVEVHNAKTKPREEQYNSTYRVVSVLTVLHQDWLNGKEYKCKVSNKALPAPIEKTISKAKGQPREPQVYTLPPSREEMTKNQVSLTCLVKGFYPSDIAVEWESNGQPENNYKTTPPVLDSDGSFFLYSRLTVDKSRWQQGNVFSCSVMHEALHNHYTQKSLSLSPGK light 2: AQVLTQTASPVSAAVGGTVIINCQSSQSIYNGNRLSWYQQKPGQPPKLLIYSASTLASGVSSRFKGSGSGTQFTLAISDVQSDDAATYYCLGSYDCDSADCFAFGGGTEVVVERTVAAPSVFIFPPSDEQLKSGTASVVCLLNNFYPREAKVQWKVDNALQSGNSQESVTEQDSKDSTYSLSSTLTLSKADYEKHKVYACEVTHQGLSSPVTKSFNRGEC
~100	~100	–	CD40-001-FEALxCD137-006-FEAR (bispecific antibody, human IgG1, kappa) heavy 1: EVQLQQSGPDLVKPGASVKISCKTSGYTFTEYIMHWVKQSHGKSLEWIGGIIPNNGGTSYNQKFKDKATMTVDKSSSTGYMELRSLTSEDSAVYYCTRREVYGRNYYALDYWGQGTLVTVSSASTKGPSVFPLAPSSKSTSGGTAALGCLVKDYFPEPVTVSWNSGALTSGVHTFPAVLQSSGLYSLSSVVTVPSSSLGTQTYICNVNHKPSNTKVDKRVEPKSCDKTHTCPPCPAPEFEGGPSVFLFPPKPKDTLMISRTPEVTCVVVAVSHEDPEVKFNWYVDGVEVHNAKTKPREEQYNSTYRVVSVLTVLHQDWLNGKEYKCKVSNKALPAPIEKTISKAKGQPREPQVYTLPPSREEMTKNQVSLTCLVKGFYPSDIAVEWESNGQPENNYKTTPPVLDSDGSFLLYSKLTVDKSRWQQGNVFSCSVMHEALHNHYTQKSLSLSPGK light 1: DIQMTQTTSSLSASLGDRVTITCSASQGINNYLNWYQQKPDGTVKLLIYYTSSLHSGVPSRFSGSGSGTDYSLTISNLEPEDIATYYCQQYSNLPYTFGGGTKLEIKRTVAAPSVFIFPPSDEQLKSGTASVVCLLNNFYPREAKVQWKVDNALQSGNSQESVTEQDSKDSTYSLSSTLTLSKADYEKHKVYACEVTHQGLSSPVTKSFNRGEC heavy 2: QSVEESGGRLVTPGTPLTLTCTVSGFSLSSYAMSWVRQAPGKGLEWIGIISTSGITYYASWAKGRFTISKTSTMVDLKITSPTTEDTATYFCARLNGFDDYVRYFDFWGLGTLVTVSSASTKGPSVFPLAPSSKSTSGGTAALGCLVKDYFPEPVTVSWNSGALTSGVHTFPAVLQSSGLYSLSSVVTVPSSSLGTQTYICNVNHKPSNTKVDKRVEPKSCDKTHTCPPCPAPEFEGGPSVFLFPPKPKDTLMISRTPEVTCVVVAVSHEDPEVKFNWYVDGVEVHNAKTKPREEQYNSTYRVVSVLTVLHQDWLNGKEYKCKVSNKALPAPIEKTISKAKGQPREPQVYTLPPSREEMTKNQVSLTCLVKGFYPSDIAVEWESNGQPENNYKTTPPVLDSDGSFFLYSRLTVDKSRWQQGNVFSCSVMHEALHNHYTQKSLSLSPGK light 2: AIELTQTPSSVSAAVGGTVTINCQASESIASNLAWYQQKPGQPPKLLIYAASYLASGVPSRFKGSGSGTEYTLTISGVQSADAATYYCQSAFYVSSSDNAFGGGTEVVVKRTVAAPSVFIFPPSDEQLKSGTASVVCLLNNFYPREAKVQWKVDNALQSGNSQESVTEQDSKDSTYSLSSTLTLSKADYEKHKVYACEVTHQGLSSPVTKSFNRGEC
